From patent US20160251421A1 (AstraZeneca / MedImmune, published 2016)

B1: anti-Ang-2 monoclonal antibody 5.103.1 (antibody, V domains shown)
VH: QVQLVQSGAEVKKPGASVKVSCKASGYTFTGYYLYWVPQAPGQGLEWMGWISPNSGGTNYAQKFQGRVTMTRDTSISTAYMELSRLRSDDTAVYYCARDQVIAVAGPFDYWAQGTLVTVSS
VL: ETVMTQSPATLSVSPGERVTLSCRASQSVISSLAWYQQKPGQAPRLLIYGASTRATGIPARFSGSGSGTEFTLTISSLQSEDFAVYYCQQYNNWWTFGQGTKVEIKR
notes: Fully human IgG kappa from XenoMouse hybridoma (strains XMG2 and XMG4); IgG purified from hybridoma supernatant; also called mAb 5.103.1
B2: anti-Ang-2 monoclonal antibody 5.86.1 (antibody, V domains shown)
VH: QVQLVQSGAEVKKPGASVKVSCKASGYTFTGYHMYWVRQAPGQGLEWLGWINPNSGGTNYAQKFQGRVTMTRDTSISTAYMELSRLRSDDTAVYYCVRDQGIAAAGPFDYWCQGTLVTVSS
VL: DIRMTQSPSSLSASVGDRVTITCRASQRISTYLNWYQQKPGKAPKFLIYAASSLQSGVPSRFSGSGSGTDFTLTISSLQPEDFATYYCQQSYTTPFTFGPGTKVDIKR
notes: Fully human IgG kappa from XenoMouse hybridoma (strains XMG2 and XMG4); IgG purified from hybridoma supernatant; also called mAb 5.86.1
B3: anti-Ang-2 monoclonal antibody 5.88.3 (antibody, V domains shown)
VH: EVQMVESGGGLVQPGGSLRLSCAASGFTLRSYWMSWVRQAPGKGLEWVANIKEDGSEKYHVDSVKGRFTISRDNAENSLFLQMSSLRAEDTAVYYCARDMEASAGLFDYWGQGTLVTVSS
VL: EIVMTQSPATLSVSPGERAILSCRASQSISSNLAWYQQKPGQAPRLLIYGASTRATGIPARFSGSGSGTEFTLTISSLQSEDFAVYYCQQYNYWWTFGQGTKVEIKR
notes: Fully human IgG kappa from XenoMouse hybridoma (strains XMG2 and XMG4); IgG purified from hybridoma supernatant; also called mAb 5.88.3
B4: anti-Ang-2 monoclonal antibody 3.3.2 (antibody, V domains shown)
VH: EVQLVESGGGLVQPGGSLRLSCAVSGFTFSSYWMSWVRQAPGKGLEWVANIKQDGSEKYYVDSVKGRFTISRDNAKNSLYLQMNSLRAEDTAVYYCARDQGIAVAGPFDYWGQGTLVTVSS
VL: EIVMTQSPATLSVSPGERATLSCRASQTVSSDLAWYQQKPGQAPRLLIYGASIRATGIPARFSGSGSGTEFTLTISSLQSEDFAVYSCQQYYNWWTFGQGTKVEIKR
notes: Fully human IgG kappa from XenoMouse hybridoma (strains XMG2 and XMG4); IgG purified from hybridoma supernatant; also called mAb 3.3.2
B5: anti-Ang-2 monoclonal antibody 5.101.1 (antibody, V domains shown)
VH: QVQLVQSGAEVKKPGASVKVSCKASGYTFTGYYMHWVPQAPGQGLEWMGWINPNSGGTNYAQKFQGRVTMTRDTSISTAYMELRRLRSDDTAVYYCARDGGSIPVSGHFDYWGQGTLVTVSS
VL: EIVMTQSPATLSVSPGERATLSCRASQSLISNLAWYQQKPGQAPRLLIFGASTRATGIPARFSGSGSGTEFTLTISSLQSEDFAVYYCHQYNNWWTFGQGTKVEIKR
notes: Fully human IgG kappa from XenoMouse hybridoma (strains XMG2 and XMG4); IgG purified from hybridoma supernatant; also called mAb 5.101.1
B6: anti-Ang-2 monoclonal antibody 3.31.2 (antibody, V domains shown)
VH: EVQLVESGGGLVQPGGSLRLSCAASGFTFSSYWMSWVRQAPGKGLEWVANIKQDGSDKYYVDSVKGRFTISRDNAKNSLYLRMNSLRAEDTAVFYCARDMGSGWFDYWGQGTLVTVSS
VL: EVVMTQSPATLSVSPGERATLSCRASQSVGSNLAWYQQKPGQAPRLLIYGASTRATGIPARFSGSGSGTEFTLTISSLQSEDFAVYCCQQYNHWWTFGQGTKVEIKR
notes: Fully human IgG kappa from XenoMouse hybridoma (strains XMG2 and XMG4); IgG purified from hybridoma supernatant; also called mAb 3.31.2
B7: anti-Ang-2 monoclonal antibody 5.28.1 (antibody, V domains shown)
VH: EVQLVESGGIVVQPGGSLRLSCAASGFTFDDYTMHWVRQTPGKGLEWVSLISWDGGSTYYADSVKGRFTISRDNSKNSLYLQMNSLRTEDTALYYCAKDIDIAVAGTGFDHWGQGTLVTVSS
VL: EIVMTQSPATLSVSPGERATLSCRASQSVTSNLAWYQQKPGQAPRLLIYGALIRATGIPARFSGSGSGTEFTLTISSLQSEDFAVYYCQQYNNWPFTFGPGTKVDIKR
notes: Fully human IgG kappa from XenoMouse hybridoma (strains XMG2 and XMG4); IgG purified from hybridoma supernatant; also called mAb 5.28.1
B8: anti-Angiopoietin-2 monoclonal antibody 3.19.3 (antibody, V domains shown)
VH: QVQLVESGGGVVQPGRSLRLSCAASGFTFTNYGMHWGRQAPGKGLEWVAVISHDGNNKYYVDSVKGRFTISRDNSKNTLYLQMNSLRAEDTAVYYCAREGIDFWSGLNWFDPWGQGTLVTVSS
VL: EIVLTQSPGTLSLSPGERATLSCRASQSITGSYLAWYQQKPGQAPRLLICGASSWATGIPDRFSGSGSGTDFTLTISRLEPEDFAVYYCQQYSSSPITFGQGTRLEIKR
notes: Fully human IgG kappa from XenoMouse hybridoma (strains XMG2 and XMG4); IgG purified from hybridoma supernatant

Biological target: T1, biotinylated recombinant human Angiopoietin-2 (R&D Systems, Inc. Cat. No. BT623) (human, UniProt O15123 19-496, limits assumed, biotinylated (sites not given))
T1 construct: Bought reagent; also called Ang-2; Ang2
T1 sequence (looked up): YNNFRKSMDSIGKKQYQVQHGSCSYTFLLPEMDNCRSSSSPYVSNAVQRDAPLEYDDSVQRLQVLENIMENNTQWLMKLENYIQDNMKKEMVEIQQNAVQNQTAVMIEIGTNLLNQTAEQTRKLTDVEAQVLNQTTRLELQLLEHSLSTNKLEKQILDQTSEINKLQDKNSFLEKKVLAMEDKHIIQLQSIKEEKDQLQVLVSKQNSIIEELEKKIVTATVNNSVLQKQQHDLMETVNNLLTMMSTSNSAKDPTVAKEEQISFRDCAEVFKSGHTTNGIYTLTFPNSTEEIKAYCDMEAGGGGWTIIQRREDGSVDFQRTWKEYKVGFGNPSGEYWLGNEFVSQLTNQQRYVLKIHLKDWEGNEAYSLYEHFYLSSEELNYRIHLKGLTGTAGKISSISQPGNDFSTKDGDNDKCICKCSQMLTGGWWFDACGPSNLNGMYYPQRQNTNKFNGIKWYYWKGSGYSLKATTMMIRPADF
Assay: competitive binding ELISA: biotinylated Angiopoietin-2 on plate-coated Tie-2/Fc, purified mAb

Going from B1 to B2, the “Efficacy (ratio of bound Angiopoietin-2 with mAb (30 µg/ml) versus without mAb)” value rises from 0.232 ratio to 0.384 ratio.

First: B3
Second: B4
The “Efficacy (ratio of bound Angiopoietin-2 with mAb (30 µg/ml) versus without mAb)” value of the first is higher: 0.403 ratio for the first, 0.388 ratio for the second.

Compared with B5, B6 is higher in “Efficacy (ratio of bound Angiopoietin-2 with mAb (30 µg/ml) versus without mAb)” value: 0.364 ratio for the first, 0.375 ratio for the second.

Going from B7 to B8, the “Efficacy (ratio of bound Angiopoietin-2 with mAb (30 µg/ml) versus without mAb)” value rises from 0.389 ratio to 0.395 ratio.
